# T1: PUF4 RNA-binding domain (Saccharomyces cerevisiae, UniProt P25339 537-888)
# T1 sequence: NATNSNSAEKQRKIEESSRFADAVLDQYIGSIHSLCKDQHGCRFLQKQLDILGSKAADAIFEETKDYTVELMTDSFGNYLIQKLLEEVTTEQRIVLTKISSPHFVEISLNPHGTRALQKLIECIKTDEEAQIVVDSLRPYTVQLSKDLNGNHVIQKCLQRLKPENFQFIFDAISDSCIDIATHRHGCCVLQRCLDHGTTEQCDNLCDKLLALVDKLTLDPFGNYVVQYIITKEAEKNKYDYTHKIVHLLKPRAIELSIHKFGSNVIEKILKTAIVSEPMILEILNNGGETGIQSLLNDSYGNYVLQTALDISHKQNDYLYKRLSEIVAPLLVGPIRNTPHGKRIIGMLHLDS
# Target: T1, PUF4 RNA-binding domain
# Assay: Mg; RNA-MaP; 20 mM Na-HEPES pH 7.4, 30 mM KOAc, 0.75 mM MgCl2, 0.1% Tween-20, 5% glycerol, 0.1 mg/mL BSA, 2 mM DTT; 25 C; 0.0125-409.6 nM protein
# Conditions: tags: N-His6-TEV cleaved; C-SNAP kept, Cy3B-labelled; label: tethered on chip by stalled RNA polymerase
row,Binder,Kd [nM]
1,UCUCUUUGUCUUAUAAUCUCUU (ssRNA) [Ib_S1_P5E.1_K5.1_C5.1_H5.1_[A4C]_A5.1_F5.1_[T9A]_T5.1],102
2,UCUCUUUGUAUUAUUCUCUCUU (ssRNA) [Ia_S1_P5E.1_K5.1_C5.1_H5.1_A5.1_F5.1_[A10C]_T5.1],16.4
3,Id_ii_S2_P3E.4_K3.3_C3.2_[C-2A]_H3.3_A3.1_F3.1_T3.2_[T9A]_[A10G] (ssRNA) RNA: UUUGAUUAAUAUGAUAUCGUUCUUUCUAUACACUAUAAGUUCUUUCUCGAUAUCAUAUUAAUCUUU,174
4,Id_ii_S2_P3E.4_K3.3_C3.2_[T-1C]_H3.3_A3.1_F3.1_T3.2_[T9C]_[A10C] (ssRNA) RNA: UUUGAUUAAUAUGAUAUCGUUCUUUCUCCACACUAUACCUUCUUUCUCGAUAUCAUAUUAAUCUUU,1460
5,Id_ii_S2_P3E.4_K3.3_C3.2_[C-2A]_H3.3_A3.1_F3.1_T3.2_[A10C] (ssRNA) RNA: UUUGAUUAAUAUGAUAUCGUUCUUUCUAUACACUAUAUCUUCUUUCUCGAUAUCAUAUUAAUCUUU,11.8
6,Id_ii_S2_P3E.4_K3.3_C3.2_H3.3_A3.1_F3.1_T3.2_[T9A]_[A10T] (ssRNA) RNA: UUUGAUUAAUAUGAUAUCGUUCUUUCUCUACACUAUAAUUUCUUUCUCGAUAUCAUAUUAAUCUUU,776
7,Id_ii_S2_P3E.4_K3.3_C3.2_H3.3_A3.1_F3.1_T3.2_[T9A] (ssRNA) RNA: UUUGAUUAAUAUGAUAUCGUUCUUUCUCUACACUAUAAAUUCUUUCUCGAUAUCAUAUUAAUCUUU,454
8,Id_ii_S2_P3E.4_K3.3_C3.2_[T-1A]_H3.3_A3.1_F3.1_T3.2_[T9C]_[A10T] (ssRNA) RNA: UUUGAUUAAUAUGAUAUCGUUCUUUCUCAACACUAUACUUUCUUUCUCGAUAUCAUAUUAAUCUUU,> 2300
9,Id_ii_S2_P3E.4_K3.3_C3.2_[C-2A]_H3.3_A3.1_F3.1_T3.2_[T9A]_[A10T] (ssRNA) RNA: UUUGAUUAAUAUGAUAUCGUUCUUUCUAUACACUAUAAUUUCUUUCUCGAUAUCAUAUUAAUCUUU,32.2
10,Id_ii_S2_P3E.4_K3.3_C3.2_[T-1C]_H3.3_A3.1_F3.1_T3.2 (ssRNA) RNA: UUUGAUUAAUAUGAUAUCGUUCUUUCUCCACACUAUAUAUUCUUUCUCGAUAUCAUAUUAAUCUUU,194
11,Id_ii_S2_P3E.4_K3.3_C3.2_[T-1A]_H3.3_A3.1_F3.1_T3.2_[T9C]_[A10C] (ssRNA) RNA: UUUGAUUAAUAUGAUAUCGUUCUUUCUCAACACUAUACCUUCUUUCUCGAUAUCAUAUUAAUCUUU,2100
12,Id_ii_S2_P3E.4_K3.3_C3.2_H3.3_A3.1_F3.1_T3.2_[T9G]_[A10C] (ssRNA) RNA: UUUGAUUAAUAUGAUAUCGUUCUUUCUCUACACUAUAGCUUCUUUCUCGAUAUCAUAUUAAUCUUU,1600
13,Id_ii_S2_P3E.4_K3.3_C3.2_H3.3_A3.1_F3.1_T3.2_[A10T] (ssRNA) RNA: UUUGAUUAAUAUGAUAUCGUUCUUUCUCUACACUAUAUUUUCUUUCUCGAUAUCAUAUUAAUCUUU,399
14,Id_ii_S2_P3E.4_K3.3_C3.2_[T-1A]_H3.3_A3.1_F3.1_T3.2_[T9G]_[A10C] (ssRNA) RNA: UUUGAUUAAUAUGAUAUCGUUCUUUCUCAACACUAUAGCUUCUUUCUCGAUAUCAUAUUAAUCUUU,> 2300
15,Id_ii_S2_P3E.4_K3.3_C3.2_[T-1C]_H3.3_A3.1_F3.1_T3.2_[T9A]_[A10T] (ssRNA) RNA: UUUGAUUAAUAUGAUAUCGUUCUUUCUCCACACUAUAAUUUCUUUCUCGAUAUCAUAUUAAUCUUU,1890
16,Id_ii_S2_P3E.4_K3.3_C3.2_[T-1A]_H3.3_A3.1_F3.1_T3.2_[T9A]_[A10T] (ssRNA) RNA: UUUGAUUAAUAUGAUAUCGUUCUUUCUCAACACUAUAAUUUCUUUCUCGAUAUCAUAUUAAUCUUU,> 2300
17,Id_ii_S2_P3E.4_K3.3_C3.2_H3.3_A3.1_F3.1_T3.2_[A10C] (ssRNA) RNA: UUUGAUUAAUAUGAUAUCGUUCUUUCUCUACACUAUAUCUUCUUUCUCGAUAUCAUAUUAAUCUUU,343
18,Id_ii_S2_P3E.4_K3.3_C3.2_[T-1G]_H3.3_A3.1_F3.1_T3.2_[A10T] (ssRNA) RNA: UUUGAUUAAUAUGAUAUCGUUCUUUCUCGACACUAUAUUUUCUUUCUCGAUAUCAUAUUAAUCUUU,1500
19,Id_ii_S2_P3E.4_K3.3_C3.2_[T-1A]_H3.3_A3.1_F3.1_T3.2_[A10T] (ssRNA) RNA: UUUGAUUAAUAUGAUAUCGUUCUUUCUCAACACUAUAUUUUCUUUCUCGAUAUCAUAUUAAUCUUU,1130
20,Id_ii_S2_P3E.4_K3.3_C3.2_[T-1C]_H3.3_A3.1_F3.1_T3.2_[T9C]_[A10T] (ssRNA) RNA: UUUGAUUAAUAUGAUAUCGUUCUUUCUCCACACUAUACUUUCUUUCUCGAUAUCAUAUUAAUCUUU,1080
21,Id_ii_S2_P3E.4_K3.3_C3.2_[T-1A]_H3.3_A3.1_F3.1_T3.2_[T9C]_[A10G] (ssRNA) RNA: UUUGAUUAAUAUGAUAUCGUUCUUUCUCAACACUAUACGUUCUUUCUCGAUAUCAUAUUAAUCUUU,> 2300
22,Id_ii_S2_P3E.4_K3.3_C3.2_[C-2A]_H3.3_A3.1_F3.1_T3.2_[T9A] (ssRNA) RNA: UUUGAUUAAUAUGAUAUCGUUCUUUCUAUACACUAUAAAUUCUUUCUCGAUAUCAUAUUAAUCUUU,27.3
23,UCUCUUUGUCUUAUCAUCUCUU (ssRNA) [Ib_S1_P5E.1_K5.1_C5.1_H5.1_[A4C]_A5.1_F5.1_[T9C]_T5.1],2040

# Source: paper PMC9352680, “A comprehensive thermodynamic model for RNA binding by the Saccharomyces cerevisiae Pumilio protein PUF4”
